Test results as given in patent US20110229981A1.
Blank lines part the entries; values can stand above or below the substance they belong to.

Legend:
[1] = molecular target: CD31 solubilized from Jurkat T cell lysates and captured on PECAM 1.2-coupled CBA beads (human) (UniProt P16284); experiment: co-capture on PECAM 1.2 CBA beads from Jurkat lysate, anti-CD3-FITC, flow cytometry; negative control (unstimulated)
[2] = molecular target: CD31 solubilized from Jurkat T cell lysates and captured on PECAM 1.2-coupled CBA beads (human) (UniProt P16284); experiment: co-capture on PECAM 1.2 CBA beads from Jurkat lysate, anti-CD3-FITC, flow cytometry; antibody CD31 treatment (CD3 + CD31 crosslink)
[3] = molecular target: CD31 solubilized from Jurkat T cell lysates and captured on PECAM 1.2-coupled CBA beads (human) (UniProt P16284); experiment: co-capture on PECAM 1.2 CBA beads from Jurkat lysate, anti-CD3-FITC, flow cytometry; positive pY control (Na3VO4/H2O2)
[4] = molecular target: CD31 solubilized from Jurkat T cell lysates and captured on PECAM 1.2-coupled CBA beads (human) (UniProt P16284); experiment: co-capture on PECAM 1.2 CBA beads from Jurkat lysate, anti-CD3-FITC, flow cytometry; T-cell activation (CD3 crosslink)
[5] = molecular target: CD31 solubilized from Jurkat T cell lysates and captured on PECAM 1.2-coupled CBA beads (human) (UniProt P16284); experiment: co-capture on PECAM 1.2 CBA beads from Jurkat lysate, anti-SHP2-PE, flow cytometry; negative control (unstimulated)
[6] = molecular target: CD31 solubilized from Jurkat T cell lysates and captured on PECAM 1.2-coupled CBA beads (human) (UniProt P16284); experiment: co-capture on PECAM 1.2 CBA beads from Jurkat lysate, anti-SHP2-PE, flow cytometry; antibody CD31 treatment (CD3 + CD31 crosslink)
[7] = molecular target: CD31 solubilized from Jurkat T cell lysates and captured on PECAM 1.2-coupled CBA beads (human) (UniProt P16284); experiment: co-capture on PECAM 1.2 CBA beads; peptide CD31 treatment against CD3 crosslink conditions
[8] = molecular target: CD31 solubilized from Jurkat T cell lysates and captured on PECAM 1.2-coupled CBA beads (human) (UniProt P16284); experiment: co-capture on PECAM 1.2 CBA beads from Jurkat lysate, anti-SHP2-PE, flow cytometry; positive pY control (Na3VO4/H2O2)
[9] = molecular target: CD31 solubilized from Jurkat T cell lysates and captured on PECAM 1.2-coupled CBA beads (human) (UniProt P16284); experiment: co-capture on PECAM 1.2 CBA beads; antibody CD31 treatment against CD3 crosslink conditions
[10] = molecular target: CD31 solubilized from Jurkat T cell lysates and captured on PECAM 1.2-coupled CBA beads (human) (UniProt P16284); experiment: co-capture on PECAM 1.2 CBA beads from Jurkat lysate, anti-SHP2-PE, flow cytometry; T-cell activation (CD3 crosslink)
[11] = molecular target: CD31 solubilized from Jurkat T cell lysates and captured on PECAM 1.2-coupled CBA beads (human) (UniProt P16284); experiment: co-capture on PECAM 1.2 CBA beads from Jurkat lysate, anti-SHP2-PE, flow cytometry; peptide CD31 treatment (CD3 crosslink + CD31 peptide)
[12] = molecular target: CD31 solubilized from Jurkat T cell lysates and captured on PECAM 1.2-coupled CBA beads (human) (UniProt P16284); experiment: co-capture on PECAM 1.2 CBA beads from Jurkat lysate, anti-CD28-PE, flow cytometry; antibody CD31 treatment (CD3 + CD31 crosslink)
[13] = molecular target: CD31 solubilized from Jurkat T cell lysates and captured on PECAM 1.2-coupled CBA beads (human) (UniProt P16284); experiment: co-capture on PECAM 1.2 CBA beads from Jurkat lysate, anti-CD28-PE, flow cytometry; negative control (unstimulated)
[14] = molecular target: CD31 solubilized from Jurkat T cell lysates and captured on PECAM 1.2-coupled CBA beads (human) (UniProt P16284); experiment: co-capture on PECAM 1.2 CBA beads from Jurkat lysate, anti-CD28-PE, flow cytometry; positive pY control (Na3VO4/H2O2)
[15] = molecular target: CD31 solubilized from Jurkat T cell lysates and captured on PECAM 1.2-coupled CBA beads (human) (UniProt P16284); experiment: co-capture on PECAM 1.2 CBA beads from Jurkat lysate, anti-CD28-PE, flow cytometry; T-cell activation (CD3 crosslink)
[16] = molecular target: CD31 solubilized from Jurkat T cell lysates and captured on PECAM 1.2-coupled CBA beads (human) (UniProt P16284); experiment: co-capture on PECAM 1.2 CBA beads from Jurkat lysate, anti-CD28-PE, flow cytometry; peptide CD31 treatment (CD3 crosslink + CD31 peptide)

MFI CD3 [1]: 197 MFI | MFI CD3 [2]: 2420 MFI | MFI CD3 [3]: 354 MFI | MFI CD3 [4]: 17900 MFI
Substance: CD3 (receptor)

MFI SHP-2 [5]: 165 MFI | MFI SHP-2 [6]: 149 MFI | increase of the amount of SHP-2 associated to CD31 [7]: 100% | MFI SHP-2 [8]: 193 MFI | increase of the amount of SHP-2 associated to CD31 [9]: 50% | MFI SHP-2 [10]: 90 MFI | MFI SHP-2 [11]: 185 MFI
Substance: SHP-2 (from UniProt Q06124 2-593) (enzyme)

MFI CD28 [12]: 17100 MFI | MFI CD28 [13]: 8160 MFI | MFI CD28 [14]: 3930 MFI | MFI CD28 [15]: 25200 MFI | MFI CD28 [16]: 24300 MFI
Substance: CD28 (from UniProt P10747 19-220) (receptor)
